Key:
Test in all cases: cell-based or functional assay
[1] = molecular target: HIV-1 Env of isolate MGRM-C-026 (pseudovirus) (HIV-1)
[2] = molecular target: HIV-1 Env of isolate JR-CSF (pseudovirus) (HIV-1) (UniProt P20871)
[3] = molecular target: HIV-1 Env of isolate 92TH021 (pseudovirus) (HIV-1)
[4] = molecular target: HIV-1 Env of isolate MGRM-C-025 (HIV-1)
[5] = molecular target: HIV-1 Env of isolate MGRM-C-027 (HIV-1)
[6] = molecular target: HIV-1 Env of isolate MGRM-C-014 (HIV-1)
[7] = molecular target: HIV-1 Env of isolate MGRM-C-024 (HIV-1)
[8] = molecular target: HIV-1 Env of isolate MGRM-C-019 (HIV-1)
[9] = molecular target: HIV-1 Env of isolate MGRM-C-023 (HIV-1)
[10] = molecular target: HIV-1 Env of isolate MGRM-C-017 (HIV-1)
[11] = molecular target: HIV-1 Env of isolate MGRM-C-015 (HIV-1)
[12] = molecular target: HIV-1 Env of isolate MGRM-C-022 (HIV-1)
[13] = molecular target: HIV-1 Env of isolate MGRM-C-026 (HIV-1)
[14] = molecular target: HIV-1 Env of isolate MGRM-C-020 (HIV-1)
[15] = molecular target: HIV-1 Env of isolate MGRM-C-028 (HIV-1)
[16] = molecular target: HIV-1 Env of isolate MG RM-D-029 (HIV-1)
[17] = molecular target: HIV-1 Env of pseudovirus MGRM-AE-007 (subtype AE) (HIV-1)
[18] = molecular target: HIV-1 Env of isolate MGRM-F1-017 (HIV-1)
[19] = molecular target: HIV-1 Env of pseudovirus MGRM-AG-008 (subtype AG) (HIV-1)
[20] = molecular target: HIV-1 Env of isolate MGRM-F1-008 (HIV-1)
[21] = molecular target: HIV-1 Env of isolate MGRM-F1-020 (HIV-1)
[22] = molecular target: HIV-1 Env of isolate MG RM-D-024 (HIV-1)
[23] = molecular target: HIV-1 Env of isolate MGRM-F1-015 (HIV-1)
[24] = molecular target: HIV-1 Env of isolate MG RM-D-021 (HIV-1)
[25] = molecular target: HIV-1 Env of isolate MGRM-F1-004 (HIV-1)
[26] = molecular target: HIV-1 Env of pseudovirus MGRM-AG-001 (subtype AG) (HIV-1)
[27] = molecular target: HIV-1 Env of isolate MGRM-F1-006 (HIV-1)
[28] = molecular target: HIV-1 Env of isolate MG RM-D-013 (HIV-1)
[29] = molecular target: HIV-1 Env of isolate MGRM-F1-021 (HIV-1)
[30] = molecular target: HIV-1 Env of isolate MG RM-D-014 (HIV-1)
[31] = molecular target: HIV-1 Env of pseudovirus MGRM-AE-008 (subtype AE) (HIV-1)
[32] = molecular target: HIV-1 Env of pseudovirus MGRM-AG-012 (subtype AG) (HIV-1)
[33] = molecular target: HIV-1 Env of pseudovirus MGRM-AG-006 (subtype AG) (HIV-1)
[34] = molecular target: HIV-1 Env of isolate MGRM-F1-023 (HIV-1)
[35] = molecular target: HIV-1 Env of isolate MGRM-F1-010 (HIV-1)
[36] = molecular target: HIV-1 Env of pseudovirus MGRM-AG-005 (subtype AG) (HIV-1)
[37] = molecular target: HIV-1 Env of isolate MG RM-D-028 (HIV-1)
[38] = molecular target: HIV-1 Env of pseudovirus MGRM-AG-013 (subtype AG) (HIV-1)
[39] = molecular target: HIV-1 Env of isolate MGRM-F1-022 (HIV-1)
[40] = molecular target: HIV-1 Env of isolate MGRM-F1-016 (HIV-1)
[41] = molecular target: HIV-1 Env of isolate MG RM-D-018 (HIV-1)
[42] = molecular target: HIV-1 Env of pseudovirus MGRM-AG-009 (subtype AG) (HIV-1)
[43] = molecular target: HIV-1 Env of isolate MGRM-F1-014 (HIV-1)
[44] = molecular target: HIV-1 Env of pseudovirus MGRM-AG-011 (subtype AG) (HIV-1)
[45] = molecular target: HIV-1 Env of isolate MG RM-D-020 (HIV-1)
[46] = molecular target: HIV-1 Env of isolate MG RM-D-026 (HIV-1)
[47] = molecular target: HIV-1 Env of isolate MG RM-D-022 (HIV-1)
[48] = molecular target: HIV-1 Env of isolate MG RM-D-019 (HIV-1)
[49] = molecular target: HIV-1 Env of isolate MG RM-D-011 (HIV-1)
[50] = molecular target: HIV-1 Env of isolate MG RM-D-012 (HIV-1)
[51] = molecular target: HIV-1 Env of isolate MGRM-F1-012 (HIV-1)
[52] = molecular target: HIV-1 Env of isolate MGRM-F1-013 (HIV-1)
[53] = molecular target: HIV-1 Env of isolate MG RM-D-016 (HIV-1)
[54] = molecular target: HIV-1 Env of pseudovirus MGRM-AG-002 (subtype AG) (HIV-1)
[55] = molecular target: HIV-1 Env of isolate MGRM-F1-018 (HIV-1)
[56] = molecular target: HIV-1 Env of pseudovirus MGRM-AG-003 (subtype AG) (HIV-1)

Chain of PGT-141 (antibody) (VH): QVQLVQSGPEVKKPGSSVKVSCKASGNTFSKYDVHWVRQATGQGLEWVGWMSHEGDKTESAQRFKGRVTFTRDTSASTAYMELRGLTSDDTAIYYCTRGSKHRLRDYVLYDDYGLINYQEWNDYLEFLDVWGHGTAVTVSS
Chain of PGT-141 (antibody) (VL): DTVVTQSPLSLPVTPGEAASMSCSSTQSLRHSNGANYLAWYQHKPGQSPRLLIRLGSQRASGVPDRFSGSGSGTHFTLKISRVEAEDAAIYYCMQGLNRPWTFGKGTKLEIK
Chain of PGT-142 (4995_E20) (antibody) (VH): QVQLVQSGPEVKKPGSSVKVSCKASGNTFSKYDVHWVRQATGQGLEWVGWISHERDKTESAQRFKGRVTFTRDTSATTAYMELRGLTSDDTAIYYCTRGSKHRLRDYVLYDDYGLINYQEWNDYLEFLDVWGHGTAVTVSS
Chain of PGT-142 (4995_E20) (antibody) (VL): as the sequence (VL) above

“5113_D22 (labelled PGT-132 in Table 26) (antibody)” gave a Primary Neutralization Index (B cell culture supernatant) [1] of 6, a Primary Neutralization Index (B cell culture supernatant) [2] of 3 and a Primary Neutralization Index (B cell culture supernatant) [3] of 51.

With “5117_E22 (labelled PGT-133 in Table 26) (antibody)” the Primary Neutralization Index (B cell culture supernatant) [1] was 3.4, the Primary Neutralization Index (B cell culture supernatant) [2] was 3.6 and the Primary Neutralization Index (B cell culture supernatant) [3] was 42.5.

In the case of PGT-141 (antibody), the IC50 (µg/mL), pseudovirus neutralization [4] is reported as 0.247 µg/mL, the IC50 (µg/mL), pseudovirus neutralization [5] is reported as 3.27 µg/mL and the IC50 (µg/mL), pseudovirus neutralization [6] is reported as 11.8 µg/mL. It also gave an IC50 (µg/mL), pseudovirus neutralization [7] of 0.101 µg/mL, an IC50 (µg/mL), pseudovirus neutralization [8] of 0.008 µg/mL and an IC50 (µg/mL), pseudovirus neutralization [9] of 0.153 µg/mL. The IC50 (µg/mL), pseudovirus neutralization [10] was 4.02 µg/mL, the IC50 (µg/mL), pseudovirus neutralization [11] was 0.033 µg/mL and the IC50 (µg/mL), pseudovirus neutralization [12] was 0.381 µg/mL. The IC50 (µg/mL), pseudovirus neutralization [13] was > 50 µg/mL, the IC50 (µg/mL), pseudovirus neutralization [14] was 1.34 µg/mL and the IC50 (µg/mL), pseudovirus neutralization [15] was 13.8 µg/mL.

PGT-142 (4995_E20) (antibody) was tested, and the IC50 [16] was 0.192 µg/mL, the IC50, pseudovirus neutralization [17] was 6.7 µg/mL and the IC50 [18] was 23.5 µg/mL. It also gave an IC50, pseudovirus neutralization [19] of 12.1 µg/mL, an IC50 [20] of 0.124 µg/mL and an IC50 [21] of 0.824 µg/mL. For the same substance, the IC50 [22] was > 50 µg/mL, the IC50 [23] was > 50 µg/mL and the IC50 [24] was > 50 µg/mL. For the same substance, the IC50 [25] was 0.013 µg/mL, the IC50, pseudovirus neutralization [26] was 12.4 µg/mL and the IC50 [27] was 12.9 µg/mL. For the same substance, the IC50 [28] was 0.221 µg/mL, the IC50 [29] was > 50 µg/mL and the IC50 [30] was 0.005 µg/mL. For the same substance, the IC50, pseudovirus neutralization [31] was 0.08 µg/mL, the IC50, pseudovirus neutralization [32] was > 50 µg/mL and the IC50, pseudovirus neutralization [33] was > 50 µg/mL. For the same substance, the IC50 [34] was 0.602 µg/mL, the IC50 [35] was > 50 µg/mL and the IC50, pseudovirus neutralization [36] was 0.383 µg/mL. The IC50 [37] was > 50 µg/mL, the IC50, pseudovirus neutralization [38] was 21.7 µg/mL and the IC50 [39] was 0.04 µg/mL. The IC50 [40] was > 50 µg/mL, the IC50 [41] was > 50 µg/mL and the IC50, pseudovirus neutralization [42] was > 50 µg/mL. For the same substance, the IC50 [43] was 0.001 µg/mL, the IC50, pseudovirus neutralization [44] was 0.081 µg/mL and the IC50 [45] was > 50 µg/mL. For the same substance, the IC50 [46] was 12.5 µg/mL, the IC50 [47] was > 50 µg/mL and the IC50 [48] was 0.155 µg/mL. The IC50 [49] was > 50 µg/mL, the IC50 [50] was > 50 µg/mL and the IC50 [51] was > 50 µg/mL. The IC50 [52] was 0.023 µg/mL, the IC50 [53] was > 50 µg/mL and the IC50, pseudovirus neutralization [54] was 0.044 µg/mL. The IC50 [55] was 0.404 µg/mL and the IC50, pseudovirus neutralization [56] was > 50 µg/mL.

From patent publication US20250320281A1
